Experiment in all cases: filter
In series [1] the target is ΔNS3 protein (NS3 protease domain) (Hepatitis C virus) (UniProt P26662). The conditions noted are these: 100 nM protein; 4.9 at 50 nM; 0.1 without protein; Tris pH 7.8, Mg2+, Ca2+.
Series [2] addresses bovine serum albumin (BSA) (Bos taurus) (UniProt P02769). The conditions noted are these: 100 nM BSA.
Series [3] has as its target T1, myeloperoxidase (MPO) (Homo sapiens) (UniProt P05164).
T1 sequence: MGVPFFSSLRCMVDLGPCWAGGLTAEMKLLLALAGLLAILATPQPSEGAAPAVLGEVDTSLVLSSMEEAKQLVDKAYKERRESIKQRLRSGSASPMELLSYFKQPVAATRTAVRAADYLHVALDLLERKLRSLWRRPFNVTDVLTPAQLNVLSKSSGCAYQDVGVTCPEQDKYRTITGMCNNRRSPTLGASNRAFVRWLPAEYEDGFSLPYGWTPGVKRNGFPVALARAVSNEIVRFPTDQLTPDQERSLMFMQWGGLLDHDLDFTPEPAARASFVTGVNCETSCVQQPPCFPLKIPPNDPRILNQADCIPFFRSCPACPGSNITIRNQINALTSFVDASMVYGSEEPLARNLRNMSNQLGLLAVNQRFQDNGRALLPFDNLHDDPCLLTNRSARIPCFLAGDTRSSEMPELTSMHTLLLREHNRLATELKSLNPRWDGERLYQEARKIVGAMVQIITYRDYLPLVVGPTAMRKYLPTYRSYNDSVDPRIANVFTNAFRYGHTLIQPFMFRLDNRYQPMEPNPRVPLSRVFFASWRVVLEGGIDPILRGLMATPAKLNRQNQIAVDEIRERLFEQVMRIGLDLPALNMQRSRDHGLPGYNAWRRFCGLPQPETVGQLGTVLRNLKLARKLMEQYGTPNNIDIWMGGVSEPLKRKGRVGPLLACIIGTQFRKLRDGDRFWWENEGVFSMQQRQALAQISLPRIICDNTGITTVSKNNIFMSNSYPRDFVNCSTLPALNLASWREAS
The conditions noted are these: 100 nM MPO; 2.66 at 50 nM; 1.49 without protein.

Chain of bovine serum albumin (BSA) (Bos taurus) (P02769 25-607): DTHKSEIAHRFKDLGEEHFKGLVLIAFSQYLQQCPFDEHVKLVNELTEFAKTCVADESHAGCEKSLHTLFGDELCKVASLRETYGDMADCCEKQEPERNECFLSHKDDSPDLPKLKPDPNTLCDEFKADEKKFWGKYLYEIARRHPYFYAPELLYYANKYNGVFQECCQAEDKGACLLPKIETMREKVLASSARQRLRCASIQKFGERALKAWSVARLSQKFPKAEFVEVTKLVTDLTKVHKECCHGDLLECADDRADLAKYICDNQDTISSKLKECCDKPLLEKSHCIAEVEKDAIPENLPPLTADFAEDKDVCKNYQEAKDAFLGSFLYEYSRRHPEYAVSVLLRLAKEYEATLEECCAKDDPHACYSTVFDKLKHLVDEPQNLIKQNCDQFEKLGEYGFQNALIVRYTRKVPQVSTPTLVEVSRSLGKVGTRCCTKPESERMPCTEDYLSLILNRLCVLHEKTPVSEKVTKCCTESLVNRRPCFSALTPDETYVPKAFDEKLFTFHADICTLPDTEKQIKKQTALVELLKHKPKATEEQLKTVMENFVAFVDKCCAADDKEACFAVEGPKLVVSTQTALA

“GGGAGGUGGAACUGAAGGAGANNNNNNNNNNNNNNNNNNNNNNNNNNNNNNNNNNNNNNNNNNNNNNNNNNNNNNNACUUCGCAAUCGCUCUACGCA [RNA pool (generation zero)]” had a binding signal in series [1] of 8.1 % bound. As for “GGUAGAUACGAUGGANNNNNNNNNNNNNNNNNNNNNNNNNNNNNNCAUGACGCGCAGCCA [RNA pool 2]”, the binding signal in series [2] is 1.86 % bound; in series [3], 1.7 % bound.

The record behind these values is patent publication US20100129870.
